From the RNAGym collection of RNA variant scans (doi:10.1073/pnas.2313332121) come the findings set out here.

Fewer inactive variants are shown than the library holds.

First the molecules themselves.
B1: TPR 5TU (parent)
chain: GGAUCUUCUCGAUCUAACAAAAAAGACAAAUCUGCCACAAAGCUUGAGAGCAUCUUCGGAUGCAGAGGCGGCAGCCUUCGGUGGCGCGAUAGCGCCAACGUUCUCAACUAUGACACGCAAAACGCGUGCUCCGUUGAAUGGAGUUUAUCAUG

The variants in this data set derive from B1. Description: polymerase ribozyme fitness, log enrichment relative to wild type (log ratio); higher = more active; in vitro selection for triplet polymerase activity. A digest of the protocol: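 A single round of triplicate in vitro selection, including frozen incubation at −7 °C, was applied to PCR-built, transcribed mutant libraries of each subunit of a heterodimeric triplet polymerase ribozyme. Illumina sequencing of input and output libraries retained genotypes with ≥10 input reads and ≥1 read per output. Fitness is the base-2 logarithm of genotype enrichment divided by wild-type enrichment, from inverse-variance-weighted replicate averages.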
A37G A64G G80A G88U G143A: the “polymerase ribozyme fitness (log ratio)” value is no more than -4.2.
The figure for A37C C96U G100C U102C C118G C131G is no more than -4.2; for A37C G80C G92A C129A it is no more than -4.2; for A37C C93A it is -2.8.
Under A37C C93U stands -1.64; under A37U U61A A89C C96A A98C U104A, no more than -4.2; under A37U C95G, -3.51.
As to A37U A98G, the “polymerase ribozyme fitness (log ratio)” value was -1.34.
The figure for A37C G86A C103A A120U is no more than -4.2.
The figure for A37C C38U U145C is 0.0837; for A37U it is -1.11; for A37G it is -1.24.
The figure for A37G A66U C96A C103U is no more than -4.2; for A37U G86U it is -3.44.
As to A37C U55A G133C U144A, the “polymerase ribozyme fitness (log ratio)” value was -2.6.
Turning to A37G A52C C95U A98C, the “polymerase ribozyme fitness (log ratio)” value was -3.46.
Under A37G C96U C105G stands -3.63; under A37U G59C C149G, no more than -4.2.
The figure for C38A A73C C75G A120C is no more than -4.2; for A37U U55G A60G C85G A107C C131U it is no more than -4.2.
In the case of A37U C51G G88A, the “polymerase ribozyme fitness (log ratio)” value is no more than -4.2.
The figure for A37G C96A U102A C131U G136U is no more than -4.2.
A37C G70C C87U U127C: the “polymerase ribozyme fitness (log ratio)” value is no more than -4.2.
The figure for A37G A60C is -3.15.
On to A37C U56A U90A C103G A121U C123U G141C, for which the “polymerase ribozyme fitness (log ratio)” value is no more than -4.2.
The figure for A37G U55A A66G C75U C85A A122U is no more than -4.2.
For A37C G86A, the “polymerase ribozyme fitness (log ratio)” value is -1.34.
For A37C G92C G124C, the “polymerase ribozyme fitness (log ratio)” value is -2.65.
With A37C C93U G136C G141U, the “polymerase ribozyme fitness (log ratio)” value was -3.34.
With A37C U55G G94A, the “polymerase ribozyme fitness (log ratio)” value is 0.0696.
With A37C C85U G88C A137U, the “polymerase ribozyme fitness (log ratio)” value was no more than -4.2.
Under A37C G48A C51U G86C G88A stands no more than -4.2; under A37U C54A C57A C93U, -3.28; under A37U A40C U55A G58A G59A G84C G126A, -4.07.
For A37G G83U G84A A142G, the “polymerase ribozyme fitness (log ratio)” value is no more than -4.2.
The figure for A37C C95U is -2.04.
As for A37C C95G, the “polymerase ribozyme fitness (log ratio)” value is -2.69.
Under A37C G83U stands -0.441.
Under C38A A89C C93G C95G C108U U135C stands no more than -4.2; under A37U U135A, -2.34.
Take A37G U61A G141C U148C: the “polymerase ribozyme fitness (log ratio)” value was no more than -4.2.
Under A37G C54A G141A stands -2.78.
The figure for A37C G83A A122U C131U U134C is 0.318.
The figure for A37C C105U is -0.652; for A37U G68U C118A it is no more than -4.2; for A37U C87U it is -0.99.
Turning to A37C G70A C85A G92A C93A, the “polymerase ribozyme fitness (log ratio)” value is no more than -4.2.
Regarding A37G U45A C76G U82G C93G A113C G136U, the “polymerase ribozyme fitness (log ratio)” value is no more than -4.2.
Under A37G A40U C54G A60G stands -2.66; under A37U G58C A97G C132U, -2.67; under A37G C54U U55A G86A A89U U109G A138G, no more than -4.2.
Under A37U G58U C96U C118G U146C stands -3.08.
Under A37U G58A G59C A121U stands -0.167.
A37C G59A G81A C96A: the “polymerase ribozyme fitness (log ratio)” value was -2.74.
On to C38A A73G C79A C114G G124U G140U U148G, for which the “polymerase ribozyme fitness (log ratio)” value is no more than -4.2.
Under A37G C38A C43U C54G G80U U104G stands no more than -4.2.
Under A37U A115C A119C stands -2.95; under A37U U77G C96A A106G, no more than -4.2; under A37G G74U C87G A115C, no more than -4.2.
Under A37G C51U A66U G83A U151G stands no more than -4.2; under A37G C51U C72U C95A A138U G143U, no more than -4.2; under A37C U77C G92A C96A U139C, no more than -4.2.
Turning to A37G G42C G88U A115G, the “polymerase ribozyme fitness (log ratio)” value is no more than -4.2.
Under A37U U61A C85U stands -2.89.
The figure for A37U A142G G152U is -4.13; for A37C U144A it is -0.958; for A37G A39C C87A C116U G136A it is no more than -4.2.
Under A37U A73G stands -1.1.
With A37U C51U G92U, the “polymerase ribozyme fitness (log ratio)” value was -2.25.
The figure for A37U A52G C76A C96U C131G is no more than -4.2.
Under C38A A41U A52C stands -2.5.
On to A37G A97G A98G, for which the “polymerase ribozyme fitness (log ratio)” value is -2.55.
Turning to A37C C103G, the “polymerase ribozyme fitness (log ratio)” value was -3.6.
A37G A52G U55A U56A C85U C103U U145A: the “polymerase ribozyme fitness (log ratio)” value was -3.09.
In the case of A37G A39U G58C G62A C63U A64U U77A C87G C103G A150U, the “polymerase ribozyme fitness (log ratio)” value was no more than -4.2.
The figure for A37C C95U C103G C118G is no more than -4.2; for A37G A39U G50A A142U it is no more than -4.2; for C38A A40U G48U C87G C99U G124A G140C it is no more than -4.2.
Take A37C U55A C96U A113U A137U: the “polymerase ribozyme fitness (log ratio)” value was -4.18.
The figure for A37U G88U G92C A122G G133U G143A A150U is -4.06; for A37G C93A U145G it is -3.99; for A37G G124A it is -2.19.
As for A37U A49C C63G C87G G124U, the “polymerase ribozyme fitness (log ratio)” value is no more than -4.2.
